Test: yeast display, Sf9 membrane polyspecificity reagent, FACS + sequencing; frameworks hold sequencing errors
Procedure, shortened: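 Nanobodies from a synthetic yeast display library (Saccharomyces cerevisiae BJ5465), induced 36–48 hours with galactose, were stained 1 hour at 4 °C with 10% biotinylated, detergent-solubilized Sf9 membrane reagent, enriched on streptavidin microbeads, then FACS-sorted. Anti-HA (expression) and streptavidin (reagent binding) fluorescence set low and high (top ~1%) gates. Polyreactivity labels come from the gate of origin. Genes were colony-PCR amplified, MiSeq 2 × 250 sequenced and filtered by CDR length.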

Row | Sequence | polyreactivity (PSR sort gate)
1 | QVQLVESGGGLVQAGGSLRLSCAASGSTFYYNAMGWYRQAPGKERELVARISRSGGSTYADSVKGRVTISRDNAKNTVYLQMNSLKPEDTAVYYCNADAYGTPEFTSYAVRYDYWGQGTQVTVSS | low polyreactivity
2 | QVQLVESGGGLVQAGGSLRLSCAASGRTFTHYAMGWYRQAPGKERELVAAISRSGGTTYYADSVKGRFTISRDNAKSTVYLQMNSLKPEDTAVYYCNAEVVDFELGVFEDYYWAYDYWGQGTQVTVSS | high polyreactivity
3 | QVQLVESGGGLVQAGGSLRLSCAASGSTFFRYAMVWYRQAPGKERELVAAITWTGGDTYYEDSVKVRFTISRDNAMNTVYLKMNSLKPEDTAVYYCNKRLDSYYLPGFDYWGQGTQVTVSS | low polyreactivity
4 | QVQLVESGGRLVQAGGSLRLSCAASGSIFQYYARGWYRQAPGKVREFVSAITSDGSSTYYADSVKGRFTISRDNAKNTVYLQMKSLKPEDTAVYYCAAGWVGYRRPSMYYWGQVTQVTVSS | high polyreactivity
5 | QVQLVESGGGLVQAGGSLRLSCAASGIIFWLYTMGWYRQAPGKERELVAAITSGGSTYYAESVKGRFTISRDNAKNTVYLQMNSLKPEDTAVYYCAAVSRAPGLRYDYWGQGTQVTVSS | high polyreactivity
6 | QVQLVESGGRLVQAGGSLRLSCAASGFIFEWNAKGWYRQAPGKERELVASITFGGGNTYYADSVKGRFTISRDYAQNTDYLQMNSLKPEDTAVYYCAVDYGYWRDSIALGEFDYWGQGTQVTVSS | low polyreactivity
7 | QVQLVESGGGLVQAGGSLRLSCAASGSTFYLNAMGWYRQAPGKERELVAAINGSGGSTYADSVKGRFTISRDNAKNTVYLQMNSLKPEDTAVYYCAADGTGYPGYSYPGNDYDYWGQGTQVTVSS | low polyreactivity
8 | QVQLVESGGGLVQAGGSLRLSCAASGSIFWRYAMGWYRQAPGKERELVAVISRSGGRTYYADSVKGRFTISRDNAKNTVYLQMNSLKPEDTAVNYCAADYYGVYSKRYGFDYWGQGTQVTVSS | high polyreactivity
9 | QVQLVESGGGLLQAGGSLRLSCAASGRTFVWNAKGWYRQAPGKERELVAPITNDGSTNYADSVKGRFTISRDNAKNTVYLQMNSLKPEDTAVYYCAKRPRGSRIVPGGYDSWGQGTQVTVSS | low polyreactivity
10 | QVQLVESGGGLVQAGGSLRLSCAASGSIFYKYTMGWYRQAPGKERELVAAITKSGGSTYYADSVKGRFTISRDNAKNTVYLQMNSLKPEDTAVYYCAAQIGRSATRGSYGYWGQGTQVTVSS | high polyreactivity
11 | QVQLVESGGGLVQAGGSLRLSCAASGSIFTIYAMGWYRQAPGKERELVAAITRSGGSTSYADSVKGRFTISRDNAKNTVYLQMNSLKPEDTAVYYCNKDLNFAKYISSILYDYWGQGTQVTVSS | low polyreactivity
12 | QVPLVESGGGLVQAGGSLRLSCAASGRTFGRYAMGWYRQTHGKERELVASISWRGGSTYYADSVKGRFTISRDYAKNTVFLQMNSLKPEDTAVYYCAVRFLTYWHGSYWYDYWGQGTQVTVSS | high polyreactivity
13 | QVQLVESGGGLVQAGGSLRLSCAASGFIFALYARGWYRQAPGTERELVAAITSSSSTYAASVKGRFTISRDNAKNTVYLQMNSLKPEDTAVYYCAADTYSYRYSNDYWGQGTQVTVSS | low polyreactivity
14 | QVQLVESGRGLVQAGGSLRLSCAASASTFYYNAMGWYRQAPGKEREFVAGITSSGAGTYYADSVKGRFTISRDNAKKTVYLQMNSLKPEDTAVYYCAAVYRWEGRTYRYVYWGQGTQVTVSS | high polyreactivity
15 | QVQLVESGGGLVQAGGSLRLSCAASGSTFYWYAMGGYRQAPGKERELVAAISGSGGRTYYADSVKGRFTISRDNAKNTVYLQMYSLKPEDTAGYYCAADTKFYNYYYWGQGTQVTVSS | high polyreactivity
16 | QVQHVESGGGLVQAGGSLRLSCAASGSTFANNAMGWYRQAPGKERELVASITTDGSTNYADSVKGRFTISRDNAKNPVYLQMNSLKPEDSAVYYCAADYHTPSSFAPIELYDYCGQGTQVTVSS | low polyreactivity
17 | QVQLVESGGGLVQAGGSLRLSCAASGRIFNPYAMGWYRKAPGKERELVAAISRGGRTYYADSVKGRFTISRDNAKNTVYLQMNSLKPEDTAVYYCAKLPSRRWAYDYWGQGTQVTVSS | high polyreactivity
18 | QVQHEESGRALVQAGGSLRLSCPPSGTTGIYAIGWYRQAPGKERELVAAITRRAGSTYYADSVKGRFTISRDNAKNRVYLLMTSLKPEDTAVYDCNATRGTATAYYYRWAGGYWGQGTQVTVSS | low polyreactivity
19 | QVQLVESGGGLVQAGGSLRLSCAASGRTFKYNTMGWYRQAPGKERELVAVISRSGGRTYYADSVKGRFTISRDNAKNTVYLQMNSLKPEDTAVYYCAARARGNDGYYWGQGTQVTVSS | high polyreactivity
20 | QVQLVESGGGLVQAGGSLRLSCASSGRTFRSYAMGWYRQAPGKERELVAAITYSGGNTYYADSVKGRFTISRDNAKNTVYLQMNSLKPEDTAVYYCAYLKTPRGYDYWGQGTQVTVSS | high polyreactivity
21 | QVQLVESGGGLVQAGRSLRLICAASGRTFSPNTMGWYRQAPGKEREFVAAINRSGGTTYYADSVKGRFTISRDIAKNTVYLQMNSRKPEDTAVYYCAADSIVPIYRGNDDNYWGQGTQVTVSS | low polyreactivity
22 | QVQLVESGGGLVQAGGSLRISCAASGFTLSYYAMGWYRQAPGKERELVASISAIGGITYYADSVKGRFTISRDNAKNTVYLQMNSLKPEDTAVYYCARQGRRYRRFDSWGQGTQVTVSS | high polyreactivity

Row | Sequence | polyreactivity (PSR sort gate)
23 | QVQLVESGGGLVQAGGSLRLSCAASGYIFYGYAMGWYRQAHGKERELVAAITVRGGSTYYADSVKGRFTISRDNAKNTVYLQMNSLNPEDTAVYYWAAAPQFTVGVGYWGQGTQVTVSS | low polyreactivity
24 | QVQLVESGGGLVQAGGSLRLSCAASGLIFYIYMGWYRQAPGKESELVAVISSSGNSTYYADSVKGRFTISRYNAKNTVYLQLNSLKPEDTAVYYCNASAYYPPSSSRYYYWGQGTQVTVSS | low polyreactivity
25 | QVQLVESGGGLVQAGGSLRLSCAASGSIYQNAMGWYRQAPGKQRELVAAITSSGGRTYADSVKGRFTISRDNAKNTVYLQMNSLIPEDTAVYYCAKDSTADELNGFDYWGQGTQVTVSS | low polyreactivity
26 | QVQLVESGGGLVQAGGSLRLSCAASGRIFVVYAMGWYRQAPGKERELVASITWRGGSTYYADSVKGRFTISRDNAKNTVYLQMNSLKPEDTAVYYCAARYARYLLYDYWGQGTQVTVSS | low polyreactivity
27 | QVQLVESGGGLVQAGGRHRLICAATGITYKSNPMGWYIQAPGTETELVAAIARRASSTYYADSVKGRFTISRDNAKNTVYLHMNSLNPEDTAVYYCNAVLPVYRTNLDYWGQGTQVTVSS | high polyreactivity
28 | QVQLVESGGGLVQAGGSLRLSCAASGIIFSGYAMGWYRQAPGKERELVAAISSRGGGTYYADSVKGRFTISRDNAKNTVYLQMNSLKPEDTAVYYCNRVAFTYNYWGQGTQVTVSS | high polyreactivity
29 | QVQLVESGGGLVQAGGSLRVSCAASGFTFYQYGMGWYRQAPGKERELVATSTSGGRTNYADSVKGRFTISRDNAKNTVYLQMNSLKPEDTAVYYCNKLPYYPRVGRIGRYYYWGQGTQVTVSS | high polyreactivity
30 | QVQLVESGGGLVQAGGSLRLSCAASGRIFRYYAMGWYRQAPGKERELVAAITKNGGSTYYADSVKRRFTISRDNAKNTVYLQMNSLKPEDTAVYYCAAARLGNYDYWGQGTQVTVSS | high polyreactivity
31 | QVQLVESGGGLVQAGGSLRLSCAASGIIFNLYAMGWYRQAPGKERELVAAISWSGGSTYYADSVKGRFTISRDNAKNTVYLQMNSLKPEDTAVYYCATSFLYPYFDEDDYWGQGTQVTVSS | high polyreactivity
32 | QVQLVESGGGIVQAGGSLRLISAASGFIFAIYAMGWYRQAPGNERELVAGISSSGSTTRYADSVKVRFTISRDYAKYTVYLQLISLIPEDTAVYDCAADGYPGDDYWGQGTQVTVSS | high polyreactivity
33 | QVQLVESGGGLVQAGGSLRLSCAASGFTFFYNAMGRYRQAPGKEREFVAAISGRGGTTYYADSVKGRFTISRDNAKNTVYLEMNSLKPEDTAVYYCAARSVSTLRYTSCKLSDDYWGQGTQVTVSS | high polyreactivity
34 | QVQLVESGRGLVQAGGSLRLSCAASGRTVWVYTMGWYRQAPGKERELVAAITLSGGSTYYADSVKGRFTISRDNAKNTVYLQMNSLKPEDTAVYYSNARPYYYTYRHSQYYYWGQGTQVTVSS | high polyreactivity
35 | QVQLVESGGGLVQAGGSLRLSCDASGSIFGWYAMGWYRQAPGKERELVAAITFSSVSTYYADSVKGRFTISRDNAKNTVYLLMNSLKPEDTAVYYCAAVVYYTFDYWGQGTQVTVSS | low polyreactivity
36 | QVQLVESGGGLVQAGGSLRLSCAASGFIFKNYAMGWYRQAPGKERELVAAITSSGGNTYYADSVKGRFTISRDNAKNTVYLQMNSLKPEDTAVYYCNARFRTLYWGQGTQVTVSS | high polyreactivity
37 | QVQLVESGGGLVQAGGSLRLSCAASGFTFVTNAMGWYRQAPGKERELVAAISWNDDDTYYADSVKGRFTISRDNAKNTVYLQMNSLKPEDTAVYYCAKDEYRVKWWGWDIYDYWGQGTQVTVSS | low polyreactivity
38 | QVQLVESGGGLVQAGGSLRLSCAASGRIFTNYAMGWSRQAPGKERELVAAITGVGSTNYADSVKGRFTISRDNEKNTVYLQMNSLKPEDTAVYYCNAEYDYVSYVYTGFAFDYWGQGTQVTVSS | low polyreactivity
39 | QVQLVESGGGLVQAGGSLRLSCAASGRILTSNAMGWYRQAPGKERELVAAISWSGGSTYYADSVKGRFTISRDNAKNTVYLQMNSLKPEDTAVYYCNADDTPVPSIRFDYWGQGTQVTVSS | low polyreactivity
40 | QVQLVESGGGLVQAGGSLRLSCAASGSIFYSYVMGWYRQAPGKERELVAAITTGGSTYYADSVKGRFTISRDNAKNTVYLQMNSLKPEDTAVYYCAAELVGTEYDYWGQGTQVTVSS | low polyreactivity
41 | QVQLVESGGGLVQAGGSLRLSCAASGRIFNYNAMGWYRQAPGKERELVATITRGGNTYYADSVKGRFTISRDNAKNTVYLQMNSLKPEDTAVYYCNAAWWKVSYVRQKYYYWGQGTQVTVSS | high polyreactivity
42 | QVQLVESGGGLVQAGGSLRLSCAASGRIFDENAMGWYRQAPGKERELVATISSSGVSTSYADSVKGRFTISRDNAKNTVYLQMNSLKPEDTAVYYCNAGYRRRYKFDYWGQGTQVTVSS | low polyreactivity
43 | QVQLVESGGGLVQAGGSHRLSCAASGFTFYRYAMGSYRQAPGKERELVAAITGGGSTYYADSVKGRFTISRDNAKNTVYLQMNSLKPVDTAVYYCNAYHIVIYDYWGQGTQVTVSS | low polyreactivity
